Article PMC12507022, “Widespread distribution of BpfA-mediated bisphenol F degradation among members of the Pseudomonadota and Actinomycetota” (The ISME Journal, 2025)

Columns and labels:
Assay in all cases: HPLC, Michaelis-Menten fit
Details in all cases: 20 mM Tris-HCl pH 8.0, 30 °C, O2 as electron acceptor
[1] = substrate: CCCc1ccc(O)c(OC)c1; type: biochemical, Rhodococcus jostii
[2] = substrate: COCc1ccc(O)cc1; type: biochemical, Rhodococcus jostii
[3] = substrate: COc1cc(CO)ccc1O; type: biochemical, Rhodococcus jostii
[4] = substrate: Oc1ccc(Cc2ccc(O)cc2)cc1; type: biochemical, Rhodococcus jostii
[5] = substrate: CCCc1ccc(O)c(OC)c1; type: biochemical, Penicillium simplicissimum
[6] = substrate: COCc1ccc(O)cc1; type: biochemical, Penicillium simplicissimum
[7] = substrate: COc1cc(CO)ccc1O; type: biochemical, Penicillium simplicissimum
[8] = substrate: Oc1ccc(Cc2ccc(O)cc2)cc1; type: biochemical, Penicillium simplicissimum

B1: EUGO (Rhodococcus jostii RHA1) (protein)
chain: MTRTLPPGVSDERFDAALQRFRDVVGDKWVLSTADELEAFRDPYPVGAAEANLPSAVVSPESTEQVQDIVRIANEYGIPLSPVSTGKNNGYGGAAPRLSGSVIVKTGERMNRILEVNEKYGYALLEPGVTYFDLYEYLQSHDSGLMLDCPDLGWGSVVGNTLDRGVGYTPYGDHFMWQTGLEVVLPQGEVMRTGMGALPGSDAWQLFPYGFGPFPDGMFTQSNLGIVTKMGIALMQRPPASQSFLITFDKEEDLEQIVDIMLPLRINMAPLQNVPVLRNIFMDAAAVSKRTEWFDGDGPMPAEAIERMKKDLDLGFWNFYGTLYGPPPLIEMYYGMIKEAFGKIPGARFFTHEERDDRGGHVLQDRHKINNGIPSLDELQLLDWVPNGGHIGFSPVSAPDGREAMKQFEMVRNRANEYNKDYAAQFIIGLREMHHVCLFIYDTAIPEAREEILQMTKVLVREAAEAGYGEYRTHNALMDDVMATFNWGDGALLKFHEKIKDALDPNGIIAPGKSGIWSQRFRGQNL
notes: synthetic gene, expressed and purified like BpfA (E. coli, Ni-NTA); contains flavin
[1]
  Km: 59.3 ± 0.7 µM
  kcat: 4.8 ± 0.002 s⁻¹
  kcat/Km: 80.9 b
[2]
  Km: 73.2 ± 1.5 µM
  kcat: 4.1 ± 0.01 s⁻¹
  kcat/Km: 56.0 a
[3]
  Km: 89.6 ± 11.3 µM
  kcat: 5.9 ± 0.3 s⁻¹
  kcat/Km: 65.8 a
[4]
  Km: 185.1 ± 11.3 µM
  kcat: 0.04 ± 0.003 s⁻¹
  kcat/Km: 0.2 b

B2: VAO (Penicillium simplicissimum) (protein)
chain: MSKTQEFRPLTLPPKLSLSDFNEFIQDIIRIVGSENVEVISSKDQIVDGSYMKPTHTHDPHHVMDQDYFLASAIVAPRNVADVQSIVGLANKFSFPLWPISIGRNSGYGGAAPRVSGSVVLDMGKNMNRVLEVNVEGAYCVVEPGVTYHDLHNYLEANNLRDKLWLDVPDLGGGSVLGNAVERGVGYTPYGDHWMMHSGMEVVLANGELLRTGMGALPDPKRPETMGLKPEDQPWSKIAHLFPYGFGPYIDGLFSQSNMGIVTKIGIWLMPNPRGYQSYLITLPKDGDLKQAVDIIRPLRLGMALQNVPTIRHILLDAAVLGDKRSYSSRTEPLSDEELDKIAKQLNLGRWNFYGALYGPEPIRRVLWETIKDAFSAIPGVKFYFPEDTPENSVLRVRDKTMQGIPTYDELKWIDWLPNGAHLFFSPIAKVSGEDAMMQYAVTKKRCQEAGLDFIGTFTVGMREMHHIVCIVFNKKDLIQKRKVQWLMRTLIDDCAANGWGEYRTHLAFMDQIMETYNWNNSSFLRFNEVLKNAVDPNGIIAPGKSGVWPSQYSHVTWKL
notes: as for B1
[5]
  Km: 71.4 ± 11.6 µM
  kcat: 5 ± 0.02 s⁻¹
  kcat/Km: 70.4 b
[6]
  Km: 72.0 ± 7.1 µM
  kcat: 3.9 ± 0.009 s⁻¹
  kcat/Km: 54.2 a
[7]
  Km: 140 ± 12.3 µM
  kcat: 6.0 ± 0.2 s⁻¹
  kcat/Km: 42.9 b
[8]
  Km: 205.6 ± 18.5 µM
  kcat: 0.05 ± 0.001 s⁻¹
  kcat/Km: 0.2 b
